# Laboratory results published in the supplement of paper PMC10065799, “High-throughput profiling of sequence recognition by tyrosine kinases and SH2 domains using bacterial peptide display” (eLife, 2023).
# System: c-Src
# Assay: phosphorylation enrichment, bacterial display (enrichment ratio); higher = better substrate or ligand; peptides without Tyr show the background
# 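Also: 11-residue human phosphosite peptides and single-mutation variants displayed on the E. coli surface, counted by deep sequencing, each peptide's frequency after selection divided by its frequency in the unselected input library; frequency after pTyr selection over input frequency; kinase dosed for 20-30% of maximal phosphorylation in three min.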
row,Sequence,phosphorylation enrichment
1,KYVVVYFREID [IL17RB_Y447],0.626
2,ADLVQYFMEHH [PTPN11_Y80_E76D_YF],0.517
3,RIRRRYCQVLN [IQCF1_Y144],0.575
4,DEDYLCREELA [POR_Y575_Y575C],0.556
5,NIRKKYYRAIL [CHD7_Y1217_Q1214R],0.442
6,KQRKEYMHRWQ [IQGAP2_Y710_R714W],0.584
7,SEKIVYGHVDD [ACO2_Y71_L74V],0.649
8,FVPSNYVAEDR [FRK_Y104_I100V_YF],0.35
9,GISDEYHVIWH [GCDH_Y398_R402W],1.09
10,QFQEKYKQMEQ [HCN4_Y531_V534M_YF],0.366
11,KDLPNYNWNSF [KISS1_Y112],0.507
12,IVRSLYEDQED [VHL_Y185_L188Q],0.59
13,DPEAAYTTRGG [EPHA3_Y779],0.475
14,CENCHYPIVPL [LCK_Y25],0.454
15,EFQLPYFNTVP [BMPR1A_Y457_M460T_YF],1.26
16,DLTQDSEEWKR [ORC6_Y232_Y232S],0.476

# Molecular target: FGFR1 (UniProt P11362)
# Assay: as above
# Chain of FGFR1 (P11362 whole entry, looked up): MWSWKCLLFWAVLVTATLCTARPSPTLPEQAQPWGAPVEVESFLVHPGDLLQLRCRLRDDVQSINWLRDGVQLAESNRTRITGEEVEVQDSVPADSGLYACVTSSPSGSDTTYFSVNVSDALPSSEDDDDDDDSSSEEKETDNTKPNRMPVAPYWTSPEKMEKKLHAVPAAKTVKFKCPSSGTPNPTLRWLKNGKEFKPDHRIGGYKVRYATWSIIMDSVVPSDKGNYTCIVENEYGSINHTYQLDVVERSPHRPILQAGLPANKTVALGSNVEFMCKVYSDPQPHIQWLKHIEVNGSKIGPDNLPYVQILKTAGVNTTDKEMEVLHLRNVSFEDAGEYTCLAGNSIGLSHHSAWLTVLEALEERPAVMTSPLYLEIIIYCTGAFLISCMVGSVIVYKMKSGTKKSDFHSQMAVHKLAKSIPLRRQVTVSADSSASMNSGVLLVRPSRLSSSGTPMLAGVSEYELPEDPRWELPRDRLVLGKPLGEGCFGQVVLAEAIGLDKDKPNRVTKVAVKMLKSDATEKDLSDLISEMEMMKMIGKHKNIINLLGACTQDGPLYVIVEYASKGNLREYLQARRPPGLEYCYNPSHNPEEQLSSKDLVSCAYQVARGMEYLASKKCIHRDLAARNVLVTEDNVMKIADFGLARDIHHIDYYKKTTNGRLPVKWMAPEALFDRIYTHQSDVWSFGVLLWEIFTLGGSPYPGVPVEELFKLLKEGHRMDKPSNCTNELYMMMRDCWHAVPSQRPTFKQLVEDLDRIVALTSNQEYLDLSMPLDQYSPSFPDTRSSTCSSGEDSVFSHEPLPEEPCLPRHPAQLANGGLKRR
row,Sequence,phosphorylation enrichment
1,KYVVVYFREID [IL17RB_Y447],0.513
2,ADLVQYFMEHH [PTPN11_Y80_E76D_YF],0.501
3,RIRRRYCQVLN [IQCF1_Y144],0.708
4,DEDYLCREELA [POR_Y575_Y575C],0.683
5,NIRKKYYRAIL [CHD7_Y1217_Q1214R],0.501
6,KQRKEYMHRWQ [IQGAP2_Y710_R714W],0.577
7,SEKIVYGHVDD [ACO2_Y71_L74V],0.471
8,FVPSNYVAEDR [FRK_Y104_I100V_YF],0.447
9,GISDEYHVIWH [GCDH_Y398_R402W],7.06
10,QFQEKYKQMEQ [HCN4_Y531_V534M_YF],0.654
11,KDLPNYNWNSF [KISS1_Y112],0.432
12,IVRSLYEDQED [VHL_Y185_L188Q],0.67
13,DPEAAYTTRGG [EPHA3_Y779],0.376
14,CENCHYPIVPL [LCK_Y25],0.542
15,EFQLPYFNTVP [BMPR1A_Y457_M460T_YF],0.682
16,DLTQDSEEWKR [ORC6_Y232_Y232S],0.495

# Molecular target: FGFR3 (UniProt P22607)
# Assay: as above
# Chain of FGFR3 (P22607 whole entry, looked up): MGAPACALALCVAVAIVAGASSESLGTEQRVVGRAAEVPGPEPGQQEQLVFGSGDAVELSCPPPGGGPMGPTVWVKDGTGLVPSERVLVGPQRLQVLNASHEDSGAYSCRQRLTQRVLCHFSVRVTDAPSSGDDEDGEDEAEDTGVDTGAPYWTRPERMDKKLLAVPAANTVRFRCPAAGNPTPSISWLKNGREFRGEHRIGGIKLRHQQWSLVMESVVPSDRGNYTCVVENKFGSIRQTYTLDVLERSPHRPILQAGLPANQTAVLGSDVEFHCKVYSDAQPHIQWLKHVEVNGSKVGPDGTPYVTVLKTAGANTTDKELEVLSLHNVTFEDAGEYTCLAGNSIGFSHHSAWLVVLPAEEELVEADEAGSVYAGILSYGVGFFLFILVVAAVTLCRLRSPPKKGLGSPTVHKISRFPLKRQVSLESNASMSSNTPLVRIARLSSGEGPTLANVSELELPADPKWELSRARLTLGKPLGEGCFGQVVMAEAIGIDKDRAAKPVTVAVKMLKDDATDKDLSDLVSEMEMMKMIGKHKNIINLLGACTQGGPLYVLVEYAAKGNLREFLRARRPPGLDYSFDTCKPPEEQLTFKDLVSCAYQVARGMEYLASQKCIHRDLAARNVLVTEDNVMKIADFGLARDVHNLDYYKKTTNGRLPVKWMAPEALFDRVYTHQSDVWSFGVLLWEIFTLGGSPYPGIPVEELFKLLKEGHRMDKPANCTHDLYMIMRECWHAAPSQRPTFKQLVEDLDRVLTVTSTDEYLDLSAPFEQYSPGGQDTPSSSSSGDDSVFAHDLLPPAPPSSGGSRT
row,Sequence,phosphorylation enrichment
1,KYVVVYFREID [IL17RB_Y447],0.867
2,ADLVQYFMEHH [PTPN11_Y80_E76D_YF],0.708
3,RIRRRYCQVLN [IQCF1_Y144],0.703
4,DEDYLCREELA [POR_Y575_Y575C],1.43
5,NIRKKYYRAIL [CHD7_Y1217_Q1214R],0.341
6,KQRKEYMHRWQ [IQGAP2_Y710_R714W],1.16
7,SEKIVYGHVDD [ACO2_Y71_L74V],0.529
8,FVPSNYVAEDR [FRK_Y104_I100V_YF],0.662
9,GISDEYHVIWH [GCDH_Y398_R402W],4.61
10,QFQEKYKQMEQ [HCN4_Y531_V534M_YF],1.05
11,KDLPNYNWNSF [KISS1_Y112],0.521
12,IVRSLYEDQED [VHL_Y185_L188Q],0.742
13,DPEAAYTTRGG [EPHA3_Y779],0.507
14,CENCHYPIVPL [LCK_Y25],0.58
15,EFQLPYFNTVP [BMPR1A_Y457_M460T_YF],0.541
16,DLTQDSEEWKR [ORC6_Y232_Y232S],0.661

# Molecular target: Fyn (UniProt P06241)
# Assay: as above
# Chain of Fyn (P06241 whole entry, looked up): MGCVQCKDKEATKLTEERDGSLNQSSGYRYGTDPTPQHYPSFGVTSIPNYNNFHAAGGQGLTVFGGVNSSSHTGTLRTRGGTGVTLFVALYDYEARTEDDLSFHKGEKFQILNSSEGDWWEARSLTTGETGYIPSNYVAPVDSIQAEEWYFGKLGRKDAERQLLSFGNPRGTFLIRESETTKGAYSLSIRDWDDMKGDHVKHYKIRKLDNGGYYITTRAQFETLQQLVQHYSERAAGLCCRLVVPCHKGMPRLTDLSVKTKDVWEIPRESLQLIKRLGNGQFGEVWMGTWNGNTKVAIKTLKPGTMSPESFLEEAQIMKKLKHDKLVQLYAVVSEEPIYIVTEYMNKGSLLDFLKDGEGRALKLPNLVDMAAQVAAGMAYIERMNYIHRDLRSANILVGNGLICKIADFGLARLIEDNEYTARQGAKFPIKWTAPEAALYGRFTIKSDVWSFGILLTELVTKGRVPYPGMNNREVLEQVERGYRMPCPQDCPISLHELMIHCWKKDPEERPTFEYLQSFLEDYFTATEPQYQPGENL
row,Sequence,phosphorylation enrichment
1,KYVVVYFREID [IL17RB_Y447],0.486
2,ADLVQYFMEHH [PTPN11_Y80_E76D_YF],0.784
3,RIRRRYCQVLN [IQCF1_Y144],0.583
4,DEDYLCREELA [POR_Y575_Y575C],0.878
5,NIRKKYYRAIL [CHD7_Y1217_Q1214R],0.443
6,KQRKEYMHRWQ [IQGAP2_Y710_R714W],0.523
7,SEKIVYGHVDD [ACO2_Y71_L74V],0.515
8,FVPSNYVAEDR [FRK_Y104_I100V_YF],0.439
9,GISDEYHVIWH [GCDH_Y398_R402W],0.837
10,QFQEKYKQMEQ [HCN4_Y531_V534M_YF],0.93
11,KDLPNYNWNSF [KISS1_Y112],0.446
12,IVRSLYEDQED [VHL_Y185_L188Q],0.477
13,DPEAAYTTRGG [EPHA3_Y779],0.531
14,CENCHYPIVPL [LCK_Y25],0.463
15,EFQLPYFNTVP [BMPR1A_Y457_M460T_YF],0.454
16,DLTQDSEEWKR [ORC6_Y232_Y232S],0.463

# Molecular target: Jak2 (UniProt O60674)
# Assay: as above
# Chain of Jak2 (O60674 whole entry, looked up): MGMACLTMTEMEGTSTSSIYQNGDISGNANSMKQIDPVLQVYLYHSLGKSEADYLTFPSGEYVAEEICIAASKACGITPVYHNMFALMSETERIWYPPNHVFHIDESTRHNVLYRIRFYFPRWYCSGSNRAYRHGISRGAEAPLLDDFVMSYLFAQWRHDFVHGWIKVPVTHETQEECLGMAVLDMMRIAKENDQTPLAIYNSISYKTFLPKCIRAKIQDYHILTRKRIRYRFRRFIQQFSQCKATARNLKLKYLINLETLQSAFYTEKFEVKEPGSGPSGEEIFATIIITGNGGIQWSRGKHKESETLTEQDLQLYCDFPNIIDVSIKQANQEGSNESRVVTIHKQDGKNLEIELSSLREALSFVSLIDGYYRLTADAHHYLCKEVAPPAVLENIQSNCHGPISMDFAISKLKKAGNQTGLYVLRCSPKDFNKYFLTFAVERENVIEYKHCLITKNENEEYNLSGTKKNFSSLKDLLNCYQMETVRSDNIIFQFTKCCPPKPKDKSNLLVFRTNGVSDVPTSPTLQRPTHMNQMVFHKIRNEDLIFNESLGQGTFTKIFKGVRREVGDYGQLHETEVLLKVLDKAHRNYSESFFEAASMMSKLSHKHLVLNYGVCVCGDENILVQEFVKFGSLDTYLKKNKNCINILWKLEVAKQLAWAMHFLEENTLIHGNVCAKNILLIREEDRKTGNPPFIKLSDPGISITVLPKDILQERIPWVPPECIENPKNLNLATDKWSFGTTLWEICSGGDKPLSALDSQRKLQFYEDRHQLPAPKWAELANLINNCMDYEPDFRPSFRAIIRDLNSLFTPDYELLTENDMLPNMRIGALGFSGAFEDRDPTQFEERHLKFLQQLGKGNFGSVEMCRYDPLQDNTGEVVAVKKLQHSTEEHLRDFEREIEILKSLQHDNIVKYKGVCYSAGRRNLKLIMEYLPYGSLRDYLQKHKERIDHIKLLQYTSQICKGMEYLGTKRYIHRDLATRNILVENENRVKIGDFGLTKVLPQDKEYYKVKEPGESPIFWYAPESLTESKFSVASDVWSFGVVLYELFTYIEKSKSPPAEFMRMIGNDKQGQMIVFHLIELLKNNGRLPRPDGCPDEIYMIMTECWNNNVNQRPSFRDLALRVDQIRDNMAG
row,Sequence,phosphorylation enrichment
1,KYVVVYFREID [IL17RB_Y447],1.51
2,ADLVQYFMEHH [PTPN11_Y80_E76D_YF],1
3,RIRRRYCQVLN [IQCF1_Y144],0.614
4,DEDYLCREELA [POR_Y575_Y575C],0.929
5,NIRKKYYRAIL [CHD7_Y1217_Q1214R],0.494
6,KQRKEYMHRWQ [IQGAP2_Y710_R714W],1.68
7,SEKIVYGHVDD [ACO2_Y71_L74V],0.738
8,FVPSNYVAEDR [FRK_Y104_I100V_YF],0.642
9,GISDEYHVIWH [GCDH_Y398_R402W],1.34
10,QFQEKYKQMEQ [HCN4_Y531_V534M_YF],1.36
11,KDLPNYNWNSF [KISS1_Y112],0.767
12,IVRSLYEDQED [VHL_Y185_L188Q],1.3
13,DPEAAYTTRGG [EPHA3_Y779],0.652
14,CENCHYPIVPL [LCK_Y25],0.643
15,EFQLPYFNTVP [BMPR1A_Y457_M460T_YF],1.08
16,DLTQDSEEWKR [ORC6_Y232_Y232S],1.07

# System: Fer (mouse)
# Assay: as above
row,Sequence,phosphorylation enrichment
1,KYVVVYFREID [IL17RB_Y447],0.591
2,ADLVQYFMEHH [PTPN11_Y80_E76D_YF],0.46
3,RIRRRYCQVLN [IQCF1_Y144],0.835
4,DEDYLCREELA [POR_Y575_Y575C],0.812
5,NIRKKYYRAIL [CHD7_Y1217_Q1214R],0.388
6,KQRKEYMHRWQ [IQGAP2_Y710_R714W],0.617
7,SEKIVYGHVDD [ACO2_Y71_L74V],0.466
8,FVPSNYVAEDR [FRK_Y104_I100V_YF],0.409
9,GISDEYHVIWH [GCDH_Y398_R402W],0.649
10,QFQEKYKQMEQ [HCN4_Y531_V534M_YF],0.502
11,KDLPNYNWNSF [KISS1_Y112],0.604
12,IVRSLYEDQED [VHL_Y185_L188Q],0.523
13,DPEAAYTTRGG [EPHA3_Y779],0.45
14,CENCHYPIVPL [LCK_Y25],0.588
15,EFQLPYFNTVP [BMPR1A_Y457_M460T_YF],0.423
16,DLTQDSEEWKR [ORC6_Y232_Y232S],0.456

# Molecular target: Hck (UniProt P08631)
# Assay: as above
# Chain of Hck (P08631 whole entry, looked up): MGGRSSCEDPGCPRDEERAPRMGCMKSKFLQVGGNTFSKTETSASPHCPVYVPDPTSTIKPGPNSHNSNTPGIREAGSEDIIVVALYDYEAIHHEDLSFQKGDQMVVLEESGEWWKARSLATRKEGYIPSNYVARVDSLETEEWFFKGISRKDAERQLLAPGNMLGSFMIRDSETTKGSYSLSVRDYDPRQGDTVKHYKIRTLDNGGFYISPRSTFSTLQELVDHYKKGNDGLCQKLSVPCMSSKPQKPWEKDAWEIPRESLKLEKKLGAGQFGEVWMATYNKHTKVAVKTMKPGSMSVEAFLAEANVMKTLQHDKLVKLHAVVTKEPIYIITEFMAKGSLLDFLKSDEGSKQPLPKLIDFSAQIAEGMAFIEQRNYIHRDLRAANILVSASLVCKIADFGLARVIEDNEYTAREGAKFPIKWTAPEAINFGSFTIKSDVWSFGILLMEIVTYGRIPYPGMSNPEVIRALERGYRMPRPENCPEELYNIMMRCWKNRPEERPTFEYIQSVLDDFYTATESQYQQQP
row,Sequence,phosphorylation enrichment
1,KYVVVYFREID [IL17RB_Y447],0.499
2,ADLVQYFMEHH [PTPN11_Y80_E76D_YF],0.53
3,RIRRRYCQVLN [IQCF1_Y144],0.826
4,DEDYLCREELA [POR_Y575_Y575C],0.99
5,NIRKKYYRAIL [CHD7_Y1217_Q1214R],0.395
6,KQRKEYMHRWQ [IQGAP2_Y710_R714W],0.613
7,SEKIVYGHVDD [ACO2_Y71_L74V],0.479
8,FVPSNYVAEDR [FRK_Y104_I100V_YF],0.431
9,GISDEYHVIWH [GCDH_Y398_R402W],1
10,QFQEKYKQMEQ [HCN4_Y531_V534M_YF],1.53
11,KDLPNYNWNSF [KISS1_Y112],0.416
12,IVRSLYEDQED [VHL_Y185_L188Q],0.581
13,DPEAAYTTRGG [EPHA3_Y779],0.468
14,CENCHYPIVPL [LCK_Y25],0.463
15,EFQLPYFNTVP [BMPR1A_Y457_M460T_YF],0.523
16,DLTQDSEEWKR [ORC6_Y232_Y232S],0.614

# Molecular target: EPHB1 (UniProt P54762)
# Assay: as above
# Chain of EPHB1 (P54762 whole entry, looked up): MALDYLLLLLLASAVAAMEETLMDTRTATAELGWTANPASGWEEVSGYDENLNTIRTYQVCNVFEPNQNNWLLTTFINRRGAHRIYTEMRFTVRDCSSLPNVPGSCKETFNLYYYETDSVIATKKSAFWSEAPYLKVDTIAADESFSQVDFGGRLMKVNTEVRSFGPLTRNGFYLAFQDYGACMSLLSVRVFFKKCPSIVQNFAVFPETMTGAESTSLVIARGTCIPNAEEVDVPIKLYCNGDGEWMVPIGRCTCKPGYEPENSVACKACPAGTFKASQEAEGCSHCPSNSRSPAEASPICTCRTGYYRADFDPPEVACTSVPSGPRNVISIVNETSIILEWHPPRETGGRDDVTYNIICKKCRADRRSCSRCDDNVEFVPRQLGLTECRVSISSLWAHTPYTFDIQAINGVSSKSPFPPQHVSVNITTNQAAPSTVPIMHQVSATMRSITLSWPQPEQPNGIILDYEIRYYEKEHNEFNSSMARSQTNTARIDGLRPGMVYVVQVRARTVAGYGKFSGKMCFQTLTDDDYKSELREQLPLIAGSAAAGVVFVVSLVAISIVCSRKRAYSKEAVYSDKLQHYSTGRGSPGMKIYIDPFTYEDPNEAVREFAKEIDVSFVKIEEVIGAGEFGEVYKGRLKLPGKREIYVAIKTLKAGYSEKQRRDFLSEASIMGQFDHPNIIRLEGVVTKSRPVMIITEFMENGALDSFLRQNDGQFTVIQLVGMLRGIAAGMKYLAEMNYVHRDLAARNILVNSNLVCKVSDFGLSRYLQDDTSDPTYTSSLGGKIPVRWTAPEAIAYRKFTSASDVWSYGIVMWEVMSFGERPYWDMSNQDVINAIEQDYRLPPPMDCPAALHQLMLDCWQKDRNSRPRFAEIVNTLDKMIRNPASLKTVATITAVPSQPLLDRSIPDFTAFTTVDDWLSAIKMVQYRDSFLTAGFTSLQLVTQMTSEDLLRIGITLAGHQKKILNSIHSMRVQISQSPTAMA
row,Sequence,phosphorylation enrichment
1,KYVVVYFREID [IL17RB_Y447],0.578
2,ADLVQYFMEHH [PTPN11_Y80_E76D_YF],0.654
3,RIRRRYCQVLN [IQCF1_Y144],0.784
4,DEDYLCREELA [POR_Y575_Y575C],0.842
5,NIRKKYYRAIL [CHD7_Y1217_Q1214R],0.455
6,KQRKEYMHRWQ [IQGAP2_Y710_R714W],0.652
7,SEKIVYGHVDD [ACO2_Y71_L74V],0.41
8,FVPSNYVAEDR [FRK_Y104_I100V_YF],0.527
9,GISDEYHVIWH [GCDH_Y398_R402W],1.46
10,QFQEKYKQMEQ [HCN4_Y531_V534M_YF],0.608
11,KDLPNYNWNSF [KISS1_Y112],0.505
12,IVRSLYEDQED [VHL_Y185_L188Q],0.67
13,DPEAAYTTRGG [EPHA3_Y779],0.466
14,CENCHYPIVPL [LCK_Y25],0.63
15,EFQLPYFNTVP [BMPR1A_Y457_M460T_YF],0.523
16,DLTQDSEEWKR [ORC6_Y232_Y232S],0.616
